Reference: paper doi:10.1101/2025.03.20.644192

Molecular target: Chicken CapZ complex, full length α/β (chicken) (UniProt P13127)
Test: ITC

RavB, full length, untagged (RavB^WT) (natural protein)
Kd: 10.8 nM
